{"source": "patent US5306619", "about": "“Screening assay for the detection of DNA-binding molecules” (Genelabs Technologies, Inc.)", "key": {"UL9 full length": {"biological_target": "UL9 full length (Herpes simplex virus 1, UniProt P10193 P10193:1-851)", "sequence (P10193 whole entry, one chain of several)": "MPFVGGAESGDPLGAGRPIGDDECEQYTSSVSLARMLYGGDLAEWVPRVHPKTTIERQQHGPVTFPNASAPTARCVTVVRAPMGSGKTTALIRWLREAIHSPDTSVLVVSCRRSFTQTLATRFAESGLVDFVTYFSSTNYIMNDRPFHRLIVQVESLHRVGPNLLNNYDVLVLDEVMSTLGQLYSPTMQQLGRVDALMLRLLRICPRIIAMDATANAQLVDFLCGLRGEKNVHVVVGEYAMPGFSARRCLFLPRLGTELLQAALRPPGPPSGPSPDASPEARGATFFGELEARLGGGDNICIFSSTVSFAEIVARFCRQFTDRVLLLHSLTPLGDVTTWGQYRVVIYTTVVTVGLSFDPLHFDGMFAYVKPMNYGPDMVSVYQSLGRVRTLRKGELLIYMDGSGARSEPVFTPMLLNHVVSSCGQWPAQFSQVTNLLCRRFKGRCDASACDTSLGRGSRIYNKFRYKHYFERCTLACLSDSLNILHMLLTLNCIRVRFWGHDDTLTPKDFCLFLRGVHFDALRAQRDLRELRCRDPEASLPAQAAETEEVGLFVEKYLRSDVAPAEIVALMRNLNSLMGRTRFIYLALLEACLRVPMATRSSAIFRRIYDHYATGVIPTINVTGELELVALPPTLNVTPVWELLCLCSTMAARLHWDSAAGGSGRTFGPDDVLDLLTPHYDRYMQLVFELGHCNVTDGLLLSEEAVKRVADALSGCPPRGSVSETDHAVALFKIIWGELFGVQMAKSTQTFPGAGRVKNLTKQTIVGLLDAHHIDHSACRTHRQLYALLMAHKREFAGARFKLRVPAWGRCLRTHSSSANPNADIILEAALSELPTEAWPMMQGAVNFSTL", "test": "EMSA; dissociation time at 4 C, competition with SEQ 16", "settings": "protein: extract; tags: baculovirus/Sf9 expressed, partially purified extract; label: 32P"}, "[1]": {"biological_target": "UL9-COOH (C-terminal 317 aa of HSV UL9) (Herpes simplex virus 1, UniProt P10193 P10193:535-851)", "sequence (P10193 535-851, one chain of several)": "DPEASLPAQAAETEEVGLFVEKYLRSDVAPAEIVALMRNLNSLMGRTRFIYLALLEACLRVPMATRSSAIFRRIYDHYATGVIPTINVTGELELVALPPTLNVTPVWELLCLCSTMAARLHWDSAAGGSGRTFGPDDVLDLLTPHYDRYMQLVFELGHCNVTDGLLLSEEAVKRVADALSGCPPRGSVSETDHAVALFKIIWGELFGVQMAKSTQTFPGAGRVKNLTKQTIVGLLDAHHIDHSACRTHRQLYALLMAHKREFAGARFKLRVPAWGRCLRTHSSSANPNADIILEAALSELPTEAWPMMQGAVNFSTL", "test": "EMSA; dissociation time at 4 C, competition with SEQ 16; 20 mM HEPES pH 7.2, 50 mM KCl, 1 mM DTT", "settings": "tags: GST fusion from pGEX-2T, thrombin cleaved; crude E. coli extracts also used; label: 32P"}}, "data": [{"binder": "FIG. 4 HSV oriS oligonucleotide (dsDNA) DNA 1: AAGTGAGAATTCGAAGCGTTCGCACTTCGTCCCAAT DNA 2: ATTGGGACGAAGTGCGAACGCTTCGAATTCTCACTT", "values": [{"measurement": "koff", "setting": "UL9 full length", "value": "~4", "unit": "h"}, {"measurement": "koff", "setting": "[1]", "value": "~4", "unit": "h"}]}]}
